Data published in patent US12545899B2, “Luciferase enzymes for use with thermostable luciferins in bioluminescent assays” (Promega Corporation, priority 2018, dated 2026).
Residue numbers refer to the chain shown, from its start. Names may count otherwise.

B1: C4601C8: SEQ ID NO: 61; H244W+T344A+I396K+S193P (protein)
chain: MADKNILYGPEPFYPLEDGTAGEQMFDALSRYAAIPGCIALTNAHTKENVLYEEFLKLSCRLAESFKKYGLKQNDTIAVCSENSLQFFLPVIASLYLGIIVAPVNDKYIERELIHSLGIVKPRIVFCSKNTFQKVLNVKSKLKSIETIIILDLNEDLGGYQCLNNFISQNSDSNLDVKKFKPYSFNRDDQVAPIMFSSGTTGLPKGVMLTHKNIVARFSIAKDPTFGNAINPTSAILTVIPFHWGFGMMTTLGYFTCGFRVVLMHTFEEKLFLQSLQDYKVESTLLVPTLMAFLAKSALVEKYDLSHLKEIASGGAPLSKEIGEMVKKRFKLNFVRQGYGLTEATSAVLITPKGDAKPGSTGKIVPLHAVKVVDPTTGKILGPNEPGELYFKGPMKMKGYYNNEEATKAIIDNDGWLRSGDIAYYDNDGHFYIVDRLKSLIKYKGYQVAPAEIEGILLQHPYIVDAGVTGIPDEAAGELPAAGVVVQTGKYLNEQIVQDYVASQVSTAKWLRGGVKFLDEIPKGSTGKIDRKVLRQMLEKHTNGHHHHHHHH
B2: C4580E9: SEQ ID NO: 54; H244W+T344A+I396K+N228D+V287I (protein)
chain: B1 chain with P193S, N228D, V287I
B3: C4610H6: SEQ ID NO: 66; H244W+T344A+I396K+K107Q+N228D (protein)
chain: B1 chain with K107Q, P193S, N228D
B4: MK0108: SEQ ID NO: 75; I109V (protein)
chain: B1 chain with P193S, W244H, A344T, K396L
B5: MK0137: SEQ ID NO: 105; H244W+S193A+N228D+L305F+S306P+I109V+C38R+F55I+Y108F+A316W+Y339M+T342S+V348I (protein)
chain: MADKNILYGPEPFYPLEDGTAGEQMFDALSRYAAIPGRIALTNAHTKENVLYEEILKLSCRLAESFKKYGLKQNDTIAVCSENSLQFFLPVIASLYLGIIVAPVNDKFVERELIHSLGIVKPRIVFCSKNTFQKVLNVKSKLKSIETIIILDLNEDLGGYQCLNNFISQNSDSNLDVKKFKPYSFNRDDQVAAIMFSSGTTGLPKGVMLTHKNIVARFSIAKDPTFGDAINPTSAILTVIPFHWGFGMMTTLGYFTCGFRVVLMHTFEEKLFLQSLQDYKVESTLLVPTLMAFLAKSALVEKYDFPHLKEIASGGWPLSKEIGEMVKKRFKLNFVRQGMGLTEITSAVLITPKGDAKPGSTGKIVPLHAVKVVDPTTGKILGPNEPGELYFKGPMKMKGYYNNEEATKAIIDNDGWLRSGDIAYYDNDGHFYIVDRLKSLIKYKGYQVAPAEIEGILLQHPYIVDAGVTGIPDEAAGELPAAGVVVQTGKYLNEQIVQDYVASQVSTAKWLRGGVKFLDEIPKGSTGKIDRKVLRQMLEKHTNGHHHHHHHH
B6: MK0133: SEQ ID NO: 101; H244W+T344I+I396K+S193A+N228D+L305F+S306P+I109V+C38R+F55I+A316W+T342S+V348I (protein)
chain: B5 chain
B7: MK0135: SEQ ID NO: 103; H244W+S193A+N228D+L305F+S306P+I109V+C38R+F55I+A316W+T342S+V348I (protein)
chain: B5 chain with I344A
B8: MK0134: SEQ ID NO: 102; H244W+T344A+I396K+S193A+N228D+L305F+S306P+I109V+C38R+F55I+Y108F+A316W+Y339M (protein)
chain: B5 chain with F108Y, M339Y, T342S, V348I

Legend:
[1] = E. coli lysate screen of epPCR/DNA shuffling variants with CS0280; format: biochemical; settings: Detection Reagent, 1 mM ATP, 500 μM substrate, 3 mins
Description: (§1) These experiments included lysing E. coli cells expressing each luciferase enzyme variant in Detection Reagent containing 1 mM ATP+500 μM substrate. The cell lysate was incubated at room temperature for 3 mins and luminescence was read. The raw luminescence reading was normalized to the on-plate luminescence of ATG-2889, which was used as a control in this screen.

[2] = E. coli lysate screen of epPCR/DNA shuffling variants with CS0333; format: biochemical; settings: Detection Reagent, 1 mM ATP, 500 μM substrate, 3 mins
Description: as §1

[3] = Effect of individual mutations: maximum luminescence with CS0333; format: biochemical; settings: 10 fM to 1 mM CS0333; Detection Reagent (DR) buffer
Description: Experiments were also conducted to evaluate and compare the activities of the various luciferase enzyme variants, including the effects of individual amino acid mutations. To evaluate the effect of individual mutations on luciferase enzyme variants, 0.005 mg/ml luciferase enzyme variant was mixed with 1 mM ATP+10 fM to 1 mM CS0333 in Detection Reagent (DR) buffer.

[4] = Differential scanning fluorimetry (DSF) analysis; format: physicochemical
How it was run: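 Enzymes mixed with Sypro Orange at 5× final, heated 30–95° C at 1° C per minute with fluorescence read every 60 s. Storage buffer 50 mM HEPES pH 7.5, 100 mM NaCl, 2 mM EDTA, or for luciferase variants 20 mM HEPES pH 7.5, 200 mM NaCl, 1 mM EDTA; per-minute fluorescence change plotted against temperature.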

[5] = Kinetic analysis of thermostable variants with CS0333 (Tables 13, 14); format: biochemical; settings: 2 mM ATP
[6] = Kinetic analysis of thermostable variants with D/L-luciferin (Tables 13, 14); format: biochemical; settings: 2 mM ATP
[7] = Luminescence at 1 mM CS0280 (Table 11); format: biochemical; settings: 1 mM substrate, 1 mM ATP
Excerpt: (§2) Tables 10 and 11 include representative results of kinetic analysis of the thermostable variants with D/L luciferin, CS0333, and CS0280. […] MK0135 and MK0137 have amino acid substitutions that improve thermostability relative to MK0133 and MK0134, respectively, while retaining activity on the luciferin analogs CS0333 and CS0280.

[8] = Kinetic analysis of thermostable variants with CS0280 (Tables 13, 14); format: biochemical; settings: 2 mM ATP
[9] = Luminescence at 1 mM CS0333 (Table 11); format: biochemical; settings: 1 mM substrate, 1 mM ATP
Excerpt: as §2

[10] = Kinetic analysis of thermostable variants with CS0280 (Table 10); format: biochemical
Description: (§3) Experiments were also conducted to evaluate the activities (i.e. Vmax and Km) of the various thermostable luciferase variants of Ppe (SEQ ID NO: 1) described above.
as §2

[11] = Luminescence at 1 mM D/L-luciferin (Table 11); format: biochemical; settings: 1 mM substrate, 1 mM ATP
Excerpt: as §2

[12] = Kinetic analysis of thermostable variants with CS0333 (Table 10); format: biochemical
Description: as §3, §2

[13] = Kinetic analysis of thermostable variants with D/L-luciferin (Table 10); format: biochemical
Description: as §3, §2

| Molecule | Normalized luminescence (Mutant RLU/ATG2889 RLU) with CS0280 [1] | Normalized luminescence (Mutant RLU/ATG2889 RLU) with CS0333 [2] | DSF Tm (° C.) ([4]; Table 9B) | Km ([10]; BrightGlo Buffer) | Vmax (RLU) ([10]; BrightGlo Buffer) | Km ([10]; Detection Reagent Buffer) | Vmax (RLU) ([10]; Detection Reagent Buffer) | Km ([12]; BrightGlo Buffer) | Vmax (RLU) ([12]; BrightGlo Buffer) | Km ([12]; Detection Reagent Buffer) | Vmax (RLU) ([12]; Detection Reagent Buffer) | Km ([13]; BrightGlo Buffer) | Vmax (RLU) ([13]; BrightGlo Buffer) | Km ([13]; Detection Reagent Buffer) | Vmax (RLU) ([13]; Detection Reagent Buffer) | further results |
| --- | --- | --- | --- | --- | --- | --- | --- | --- | --- | --- | --- | --- | --- | --- | --- | --- |
| B1 | 4.53 | 3.32 |  |  |  |  |  |  |  |  |  |  |  |  |  |  |
| B2 | 4.00 | 6.51 |  |  |  |  |  |  |  |  |  |  |  |  |  |  |
| B3 | 3.67 | 4.15 |  |  |  |  |  |  |  |  |  |  |  |  |  |  |
| B4 |  |  |  |  |  |  |  |  |  |  |  |  |  |  |  | Vmax (RLU) with CS0333 [3]: 1,300 RLU; DSF Tm (° C.) ([4]; Table 9A): 78 °C |
| B5 |  |  | 69 °C | 2.92 µM | 2,255,088 RLU | 18.9 µM | 109,120 RLU | 7.17 µM | 5,453,269 RLU | 80.5 µM | 3,679,125 RLU | 0.0368 µM | 279,889 RLU | 0.196 µM | 40,917 RLU | Km ([5]; BrightGlo Buffer): 4.27 µM; Vmax (RLU) ([5]; BrightGlo Buffer): 3,236,246 RLU; Km ([5]; Detection Reagent Buffer): 18.8 µM; Vmax (RLU) ([5]; Detection Reagent Buffer): 668,831 RLU; Km ([6]; BrightGlo Buffer): 0.0835 µM; Vmax (RLU) ([6]; BrightGlo Buffer): 253,978 RLU; Km ([6]; Detection Reagent Buffer): 0.306 µM; Vmax (RLU) ([6]; Detection Reagent Buffer): 29,013 RLU; Vmax (RLU) CS0280 BrightGlo Buffer ([7]; BrightGlo Buffer): 1,931,470 RLU; Vmax (RLU) CS0280 Detection Reagent Buffer ([7]; Detection Reagent Buffer): 117,973 RLU; Km ([8]; BrightGlo Buffer): 4.08 µM; Vmax (RLU) ([8]; BrightGlo Buffer): 825,876 RLU; Km ([8]; Detection Reagent Buffer): 535 µM; Vmax (RLU) ([8]; Detection Reagent Buffer): 88,972 RLU; Vmax (RLU) CS0333 BrightGlo Buffer ([9]; BrightGlo Buffer): 3,882,620 RLU; Vmax (RLU) CS0333 Detection Reagent Buffer ([9]; Detection Reagent Buffer): 3,127,710 RLU; Vmax (RLU) D/L-luciferin BrightGlo Buffer ([11]; BrightGlo Buffer): 326,347 RLU; Vmax (RLU) D/L-luciferin Detection Reagent Buffer ([11]; Detection Reagent Buffer): 48,315 RLU |
| B6 |  |  | 59 °C | 5.36 µM | 2,774,469 RLU | 41.6 µM | 266,359 RLU | 14 µM | 27,149,096 RLU | 77.4 µM | 21,861,957 RLU | 0.13 µM | 1,361,878 RLU | 0.993 µM | 1,545,274 RLU |  |
| B7 |  |  | 78 °C | 22 µM | 343,822 RLU | 150 µM | 15,983 RLU | 43.4 µM | 4,782,661 RLU | 509 µM | 1,018,125 RLU | 0.157 µM | 490,914 RLU | 0.746 µM | 93,531 RLU |  |
| B8 |  |  | 57 °C | 1.21 µM | 15,499,640 RLU | 6.12 µM | 1,208,016 RLU | 2.24 µM | 11,167,451 RLU | 26.5 µM | 9,278,637 RLU | 0.0257 µM | 377,267 RLU | 0.161 µM | 430,060 RLU |  |
